T1: biotinylated recombinant TPBG protein (Homo sapiens (Human), UniProt Q13641 32-355, Biotinylated; the number and positions of the biotin labels are not stated and the letters do not carry them.)
T1 sequence: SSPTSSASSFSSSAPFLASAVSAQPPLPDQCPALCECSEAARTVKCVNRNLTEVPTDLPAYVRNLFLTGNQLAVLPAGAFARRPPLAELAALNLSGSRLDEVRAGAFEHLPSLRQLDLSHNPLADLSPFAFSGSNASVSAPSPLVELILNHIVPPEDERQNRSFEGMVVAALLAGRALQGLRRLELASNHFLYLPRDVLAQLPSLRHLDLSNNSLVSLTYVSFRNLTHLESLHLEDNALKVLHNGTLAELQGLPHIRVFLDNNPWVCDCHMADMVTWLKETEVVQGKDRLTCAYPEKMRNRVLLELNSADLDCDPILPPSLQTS

T2: human TPBG-hFc (human, UniProt Q13641 32-355)
T2 construct: also called immunogen A; hFc tagged TPBG protein; not shown: The human IgG Fc fragment of the pCpC vector (Invitrogen V044-50) and any linker to it
T2 sequence: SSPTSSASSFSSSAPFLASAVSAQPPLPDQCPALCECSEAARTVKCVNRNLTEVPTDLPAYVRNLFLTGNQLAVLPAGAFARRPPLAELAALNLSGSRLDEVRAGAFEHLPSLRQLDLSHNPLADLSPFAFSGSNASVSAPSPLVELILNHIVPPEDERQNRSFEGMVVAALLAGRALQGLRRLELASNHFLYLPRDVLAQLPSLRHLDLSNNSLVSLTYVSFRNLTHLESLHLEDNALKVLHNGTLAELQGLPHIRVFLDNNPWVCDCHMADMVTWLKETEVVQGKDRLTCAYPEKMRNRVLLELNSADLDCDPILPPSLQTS


Experiments:
[1] = target: T1, biotinylated recombinant TPBG protein; assay: competitive ELISA; row antibody 5 ug/mL; competitor: coated 52C9E9F6
Method: (§1) The purified antibodies to be tested were diluted to 1 μg/mL using PBS, and coated with high-adsorption of 96-well microplates at […]. After overnight coating at 4[…], 250 μL of blocking buffer (PBS containing 0.01% (v/v) Tween20 and 1% (w/w) BSA) was added to block coating at room temperature for 1 h, and 0.05 μg/mL of biotinylated recombinant TPBG protein was added to each well. Meanwhile, 5 μg/mL final concentration of competitive antibodies, i.e. the purified antibodies obtained from Embodiment 2 with the clone number of 12B12C7C3, 5G4H10G5, 37H9C5G2, 39A11G5F2, 52C9E9F6, 28D4E6A9, 36A10D8B12, 99E12C7H1, 103E2E9C2 and 106D5G3D10 were added and incubated at 25-37° C. for 1-2 h. The plates were washed three times with plate-washing buffer (PBS containing 0.01% (v/v) Tween20) and HRP (horseradish peroxidase)-labeled streptavidin (purchased from Sigma) was added. After incubating at 37° C. for 0.5 h, the plates were washed three times with plate-washing buffer (PBS containing 0.01% (v/v) Tween20), and 100 μL of TMB substrate was added to each well and the plates were further incubated at room temperature for 30 min prior to adding 100 μL of stop buffer (1.0N HCl) to each well. A₄₅₀ₙₘ values were read using an ELISA microplate reader (SpectraMax 384plus purchased from Molecular Device) and results were shown in FIG. 6. The higher the values of the competition rate, the closer the antigen surface of the two antibodies are.

[2] = target: T1, biotinylated recombinant TPBG protein; assay: competitive ELISA; row antibody 5 ug/mL; competitor: coated 36A10D8B12
Method: as §1

[3] = target: T1, biotinylated recombinant TPBG protein; assay: competitive ELISA; row antibody 5 ug/mL; competitor: coated 103E2E9C2
Method: as §1

[4] = target: T1, biotinylated recombinant TPBG protein; assay: competitive ELISA; row antibody 5 ug/mL; competitor: coated 28D4E6A9
Method: as §1

human TPBG-hFc [5] = target: T2, human TPBG-hFc; assay: ELISA, coated human TPBG-hFc 1.0 ug/mL; antibody 0.002 nM
Method: (§2) The purified immunogen A (as for its method of preparation please refer to step 1 in Example 1) diluting with PBS to a final concentration of 1.0 μg/mL was aliquoted into a 96-well ELISA plate at 100 μL per well, and sealed with a parafilm and incubated at 4° C. overnight. The plate was washed twice with plate washing buffer (PBS containing 0.01% (v/v) Tween 20), and blocked with blocking buffer (PBS containing 0.01% (v/v) Tween 20 and 1% (w/w) BSA) at room temperature for 2 h. The blocking buffer was discarded, and 100 μL per well of the purified antibody obtained from Embodiment 2 was added. After incubating at 37° C. for 2 h, the plate was washed for three times with plate washing buffer (PBS containing 0.01% (v/v) Tween 20). HRP (horseradish peroxidase)-labeled secondary antibody (purchased from Sigma) was added and incubated at 37° C. for 2 h, and the plate was washed for three times using plate washing buffer (PBS containing 0.01% (v/v) Tween 20). 100 μL of TMB substrate was aliquoted into each well, incubated at room temperature for 30 min, and 100 μL of stop buffer (1.0N HCl) per well was subsequently added. A₄₅₀ₙₘ values were read using the ELISA plate reader (SpectraMax 384plus purchased from Molecular Device), and the results were shown in FIG. 6 and table 6. […] In Table 6 the IgG control herein is a mice IgG control, the data in the Table are OD₄₅₀ₘₙ values, and Blank means the OD₄₅₀ₘₙ value when there is only PBS buffer in the plate.

[6] = target: T1, biotinylated recombinant TPBG protein; assay: competitive ELISA; row antibody 5 ug/mL; competitor: coated 99E12C7H1
Method: as §1

human TPBG-hFc [7] = target: T2, human TPBG-hFc; assay: ELISA, coated human TPBG-hFc 1.0 ug/mL; antibody 0.2 nM
Method: as §2

[8] = target: T1, biotinylated recombinant TPBG protein; assay: competitive ELISA; row antibody 5 ug/mL; competitor: coated 106D5G3D10
Method: as §1

[9] = target: T1, biotinylated recombinant TPBG protein; assay: competitive ELISA; row antibody 5 ug/mL; competitor: coated 12B12C7C3
Method: as §1

human TPBG-hFc [10] = target: T2, human TPBG-hFc; assay: ELISA, coated human TPBG-hFc 1.0 ug/mL; antibody 2 nM
Method: as §2

| Binder | competition rate [1] [%] | competition rate [2] [%] | competition rate [3] [%] | competition rate [4] [%] | OD450nm (human TPBG-hFc [5]) [OD450nm] | competition rate [6] [%] | OD450nm (human TPBG-hFc [7]) [OD450nm] | competition rate [8] [%] | competition rate [9] [%] | OD450nm (human TPBG-hFc [10]) [OD450nm] |
| --- | --- | --- | --- | --- | --- | --- | --- | --- | --- | --- |
| 5G4H10G5 (antibody, V domains shown, Mouse hybridoma antibody purified from culture supernatant; also called TPBG antibody; lead antibody) VH: EVQLVESGGDLVQPGGSLKLFCAASGFTFSTYGLSWVRQTPDKRLELVATITNNDGSAYYPDSVKGRFTISRDKAKNTLFLQMTSLKSEDTAMYYCARETGFGSSYLFDYWGQGTLVTVSA VL: NIVMTQTPKFLLVSAGDRVTITCKASQSVSNDVAWYQQKPGQSPKLLIYFATNRYTGVPNRFTGSGYGTEFTFTISSVQAEDLAVYFCQQDYSSPTFGGGTKLEIK | 19 | 1 | 2 | -1 | 0.1 | 95 | 1.76 | 3 | 9 | 2.68 |
| 36A10D8B12 (antibody, V domains shown, Mouse hybridoma antibody purified from culture supernatant; also called TPBG antibody; lead antibody) VH: DVQLQESGPGMVKPSQSLSLTCTVTGYSITSGYDWHWIRHFPGNKLEWMGYISYSGNTNYNPSLKSRISITHNTSKNHFFLRLNSVTTEDTATYYCARGYGNWDAMDYWGQGTSVTVSS VL: DIVMTQSQKFMSTSVGDRVSVTCKASQIVDTNVAWYQQKPGQSPKALISSASYRYSGVPDRFTGSGSGTDFTLTISNVQSEDLAEYFCQQYNSYPLTFGAGTKLELT | 23 | 85 | 40 | 86 | 0.18 | 25 | 2.15 | 14 | 21 | 3.06 |
| 28D4E6A9 (antibody, V domains shown, Mouse hybridoma antibody purified from culture supernatant; also called TPBG antibody; lead antibody) VH: DVQLVESGGGLVRPGGSLKLSCAASGFTFSNYVMSWARQSPEKRLEWVAEISTGGSHTYYSDTVTGRFTISRDNAKKALYLEMSSLRSEDTAIYYCIMFYYGSSYSMDYWGQGTSVTVSS VL: DIQMTQSTSSLSASLGDRITISCRASQDIRNYLNWYQQKPDGTVKLLIYHTSRLHSGVPSRFSGSGSGTDYSLTISNLEQEDIATYFCQQGDTLPLTFGAGTRLELK | 0 | 75 | 88 | 96 | 0.14 | 11 | 1.97 | 5 | 24 | 2.64 |
| 103E2E9C2 (antibody, V domains shown, Mouse hybridoma antibody purified from culture supernatant; also called TPBG antibody; lead antibody) VH: EVQLQQSGPVLVKPGASVKMSCEASGYSFIDYYMSWVKQSRGRSLEWIGVFNPYSGEIIYNQKFKGKATLTVDKSSSTAYMELSSLTSEDSGVYSCARLRISYYAIDYWGQGTSVAVSS VL: ENVLTQSPAIMSASPGEKVTMTCRATSSVSSGHFHWYQQKSGASPKVWIYSTSNLASGVPARFSGSGSGTSFSLTISSVEAEDVATYFCQQYSGYPLTFGGGTKLEIK | 0 | 31 | 88 | 95 | 0.14 | 3 | 1.89 | 0 | 0 | 2.64 |
| 39A11G5F2 (antibody, V domains shown, Mouse hybridoma antibody purified from culture supernatant; also called TPBG antibody; lead antibody) VH: QVQLQQSGAELMKPGASMRLSCKATGYTFTGYWLEWIKRRPGHGLEWIGEILPGRGSTNYNEKFKGKATFTAETSSNTAYMQLTSLTTEDSAIYYCARGGRDFDNWGQGTTLTVSS VL: DIQMTQSTSSLSASLGDRVTISCSASQGINNHLNWYQQKPDGTVKLLIYYTSSLHSGVPSRFSGSGSGTDYSLTISNLEPEDIAIYYCQQFSKLPYTFGGGTKVEMK | 95 | 0 | 0 | 0 | 0.11 | 16 | 1.36 | 4 | 9 | 2.43 |
| 52C9E9F6 (antibody, V domains shown, Mouse hybridoma antibody purified from culture supernatant; also called TPBG antibody; lead antibody) VH: QVQLQQSGAELMKPGASVKLSCKATGYTFTGYWIEWIKQRPGHGLEWIGEILPGRGSTDYNEKFKGKATFTADTSSNTAYMQLSSLTTEDSAIYYCTRGRLDFTYWGQGTLVTVSA VL: DIQMTQTTSSLSASLGDRVTISCSASQGIRNYLNWYQQKPDGTVKLLIYYTSSLHSGVPSRFSGSGSGTDYSLTISNLEPEDIATYYCQQYSKVPWTFGGGTKLEIK | 97 | 19 | 0 | 17 | 0.12 | 18 | 1.39 | 7 | 27 | 2.68 |
| 37H9C5G2 (antibody, V domains shown, Mouse hybridoma antibody purified from culture supernatant; also called TPBG antibody; lead antibody) VH: QVQLQQSDAELVRPGASVKMSCKVSGYTFTDHTIHWMKQRPEQGLEWIGYIYPRDGSGTYNEKFKGKATLTADKSSSTAYMQLNSLTSEDSAVYFCARDGSSHYWYFDVWGTGTTVTVSS VL: DIQMTQSPASLSASVGETVTITCRASEIIYNYLAWYQQKQGKSPQLLVYNAKTLAEGVPSRFSGSYSGTQFSLNINSLQSEDFGIYYCQHHHDTPLTFGAGTKLDLK | 5 | 94 | 38 | 58 | 0.11 | 7 | 1.55 | 4 | 6 | 2.52 |
| 99E12C7H1 (antibody, V domains shown, Mouse hybridoma antibody purified from culture supernatant; also called TPBG antibody; lead antibody) VH: QIQLVQSGPELKKPGETVKISCKPSGYTFTAYGLSWVKQAPGQGFQWMGWINTYSGVPTYTDDFKGRFAFSLETSAGTASLQITNLKNEDTATYFCARSSIPPFEYWGPGTTLTVSS VL: SFVMTQSPKFLLVSVGDRVTITCKASQSVSNDVAWYQQKPGQPPRVLIYFASNRYTGVPDRFTGSGYGTDFTFTISTVQAEDLALYFCQQDYSSPWTFGGGTKLEIK | 0 | 8 | 1 | 38 | 0.21 | 94 | 2.62 | 12 | 11 | 2.93 |

Source: patent US20210198377A1 (XDCEXPLORER SHANGHAI, published 2021)
